Measurements as given in US20140193378A1 (UNIVERSITY OF MIAMI, published 2014).
Non-standard residues stand in square brackets, D forms with d. No end group written: not given here. *: point of attachment. Phe(F5) = N[C@@H](Cc1c(F)c(F)c(F)c(F)c1F)C(=O)O; Desaminotyrosyl = O=C(CCc1ccc(O)cc1)*; NMeY = CN[C@@H](Cc1ccc(O)cc1)C(=O)O; Agmatine = N=C(N)NCCCCN*; NMeA = CN[C@@H](C)C(=O)O; Nle = CCCC[C@H](N)C(=O)O; Orn = NCCC[C@H](N)C(=O)O; Abu = CC[C@H](N)C(=O)O; Ava = NCCCCC(=O)O; GABA = NCCCC(=O)O

T1: human GHRH receptor (human pituitary membrane homogenates) (human, UniProt Q02643 23-423)
T1 construct: whole, on cells; Native receptor in human pituitary membrane homogenates, not on intact cells; also called hGHRH receptor
T1 sequence (looked up): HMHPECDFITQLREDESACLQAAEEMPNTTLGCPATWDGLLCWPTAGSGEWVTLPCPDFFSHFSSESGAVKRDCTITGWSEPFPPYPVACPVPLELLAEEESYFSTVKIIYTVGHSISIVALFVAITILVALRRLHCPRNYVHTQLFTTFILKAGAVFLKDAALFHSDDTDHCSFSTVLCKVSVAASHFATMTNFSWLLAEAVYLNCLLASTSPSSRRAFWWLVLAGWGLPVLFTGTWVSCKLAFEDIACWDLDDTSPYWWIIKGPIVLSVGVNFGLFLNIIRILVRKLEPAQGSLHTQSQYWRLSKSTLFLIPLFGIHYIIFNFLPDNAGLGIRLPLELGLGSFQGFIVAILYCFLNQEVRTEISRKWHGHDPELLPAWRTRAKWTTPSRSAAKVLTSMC


target: T1, human GHRH receptor (human pituitary …); experiment: radioligand competition vs 125I-JV-1-42 (0.2 nM), human pituitary membranes
Source text: Normal human pituitaries were purchased from the National Hormone and Peptide Program (A. F. Parlow, Los Angeles, County Harbor-UCLA Medical Center, Torrance, Calif.).

Row | Binder | Relative affinity (Binding potency) vs JI-38 [fold]
1 | [NMeY][dA]DAIFTQSYR[Orn]VL[Abu]QLSAR[Orn]LLQDI[Nle]DR-NHMe [P-27403 [N-Me-Tyr^1, D-Ala^2, Gln^8, Orn^12, Abu^15, Orn^21, Nle^27, Asp^28]hGHRH(1-29)NH-CH3] | 27.2
2 | [Desaminotyrosyl][dA]DAIFTQSYR[Orn]VL[Abu]QLSAR[Orn]LLQDI[Nle]DR-NHMe (SMILES CCCC[C@H](NC(=O)[C@@H](NC(=O)[C@H](CC(=O)O)NC(=O)[C@H](CCC(N)=O)NC(=O)[C@H](CC(C)C)NC(=O)[C@H](CC(C)C)NC(=O)[C@H](CCCN)NC(=O)[C@H](CCCNC(=N)N)NC(=O)[C@H](C)NC(=O)[C@H](CO)NC(=O)[C@H](CC(C)C)NC(=O)[C@H](CCC(N)=O)NC(=O)[C@H](CC)NC(=O)[C@H](CC(C)C)NC(=O)[C@@H](NC(=O)[C@H](CCCN)NC(=O)[C@H](CCCNC(=N)N)NC(=O)[C@H](Cc1ccc(O)cc1)NC(=O)[C@H](CO)NC(=O)[C@H](CCC(N)=O)NC(=O)[C@@H](NC(=O)[C@H](Cc1ccccc1)NC(=O)[C@@H](NC(=O)[C@H](C)NC(=O)[C@H](CC(=O)O)NC(=O)[C@@H](C)NC(=O)CCc1ccc(O)cc1)[C@@H](C)CC)[C@@H](C)O)C(C)C)[C@@H](C)CC)C(=O)N[C@@H](CC(=O)O)C(=O)N[C@@H](CCCNC(=N)N)C(=O)NC, also called Peptide 27408) [P-27408 [Dat^1, D-Ala^2, Gln^8, Orn^12, Abu^15, Orn^21, Nle^27, Asp^28]hGHRH(1-29)NH-CH3] | 7.91
3 | [Desaminotyrosyl][dA]DAIFTQSYR[Orn]VL[Abu]QLSAR[Orn]LLQDI[Nle]D[dR]-NHMe (SMILES CCCC[C@H](NC(=O)[C@@H](NC(=O)[C@H](CC(=O)O)NC(=O)[C@H](CCC(N)=O)NC(=O)[C@H](CC(C)C)NC(=O)[C@H](CC(C)C)NC(=O)[C@H](CCCN)NC(=O)[C@H](CCCNC(=N)N)NC(=O)[C@H](C)NC(=O)[C@H](CO)NC(=O)[C@H](CC(C)C)NC(=O)[C@H](CCC(N)=O)NC(=O)[C@H](CC)NC(=O)[C@H](CC(C)C)NC(=O)[C@@H](NC(=O)[C@H](CCCN)NC(=O)[C@H](CCCNC(=N)N)NC(=O)[C@H](Cc1ccc(O)cc1)NC(=O)[C@H](CO)NC(=O)[C@H](CCC(N)=O)NC(=O)[C@@H](NC(=O)[C@H](Cc1ccccc1)NC(=O)[C@@H](NC(=O)[C@H](C)NC(=O)[C@H](CC(=O)O)NC(=O)[C@@H](C)NC(=O)CCc1ccc(O)cc1)[C@@H](C)CC)[C@@H](C)O)C(C)C)[C@@H](C)CC)C(=O)N[C@@H](CC(=O)O)C(=O)N[C@H](CCCNC(=N)N)C(=O)NC) [P-27401 [Dat^1, D-Ala^2, Gln^8, Orn^12, Abu^15, Orn^21, Nle^27, Asp^28, D-Arg^29]hGHRH(1-29)NH-CH3] | 1.59
4 | [NMeY][dA]DAIFTQSYR[Orn]VL[Abu]QLSAR[Orn]LLQDI[Nle]DR[Ava]-NH2 (N-terminus assumed; SMILES CCCC[C@H](NC(=O)[C@@H](NC(=O)[C@H](CC(=O)O)NC(=O)[C@H](CCC(N)=O)NC(=O)[C@H](CC(C)C)NC(=O)[C@H](CC(C)C)NC(=O)[C@H](CCCN)NC(=O)[C@H](CCCNC(=N)N)NC(=O)[C@H](C)NC(=O)[C@H](CO)NC(=O)[C@H](CC(C)C)NC(=O)[C@H](CCC(N)=O)NC(=O)[C@H](CC)NC(=O)[C@H](CC(C)C)NC(=O)[C@@H](NC(=O)[C@H](CCCN)NC(=O)[C@H](CCCNC(=N)N)NC(=O)[C@H](Cc1ccc(O)cc1)NC(=O)[C@H](CO)NC(=O)[C@H](CCC(N)=O)NC(=O)[C@@H](NC(=O)[C@H](Cc1ccccc1)NC(=O)[C@@H](NC(=O)[C@H](C)NC(=O)[C@H](CC(=O)O)NC(=O)[C@@H](C)NC(=O)[C@H](Cc1ccc(O)cc1)NC)[C@@H](C)CC)[C@@H](C)O)C(C)C)[C@@H](C)CC)C(=O)N[C@@H](CC(=O)O)C(=O)N[C@@H](CCCNC(=N)N)C(=O)NCCCCC(N)=O, also called Peptide 22326) [P-22326 [N-Me-Tyr^1, D-Ala^2, Gln^8, Orn^12, Abu^15, Orn^21, Nle^27, Asp^28, Apa^30]hGHRH(1-30)NH2] | 6.12
5 | [NMeY][dA]DAIFTNSYR[Orn]VL[Abu]QLSAR[Orn]LLQDI[Nle]SR[GABA]-NH2 (N-terminus assumed; SMILES CCCC[C@H](NC(=O)[C@@H](NC(=O)[C@H](CC(=O)O)NC(=O)[C@H](CCC(N)=O)NC(=O)[C@H](CC(C)C)NC(=O)[C@H](CC(C)C)NC(=O)[C@H](CCCN)NC(=O)[C@H](CCCNC(=N)N)NC(=O)[C@H](C)NC(=O)[C@H](CO)NC(=O)[C@H](CC(C)C)NC(=O)[C@H](CCC(N)=O)NC(=O)[C@H](CC)NC(=O)[C@H](CC(C)C)NC(=O)[C@@H](NC(=O)[C@H](CCCN)NC(=O)[C@H](CCCNC(=N)N)NC(=O)[C@H](Cc1ccc(O)cc1)NC(=O)[C@H](CO)NC(=O)[C@H](CC(N)=O)NC(=O)[C@@H](NC(=O)[C@H](Cc1ccccc1)NC(=O)[C@@H](NC(=O)[C@H](C)NC(=O)[C@H](CC(=O)O)NC(=O)[C@@H](C)NC(=O)[C@H](Cc1ccc(O)cc1)NC)[C@@H](C)CC)[C@@H](C)O)C(C)C)[C@@H](C)CC)C(=O)N[C@@H](CO)C(=O)N[C@@H](CCCNC(=N)N)C(=O)NCCCC(N)=O, also called Peptide 25501) [P-25501 [N-Me-Tyr^1, D-Ala^2, Orn^12, Abu^15, Orn^21, Nle^27, Gab^30]hGHRH(1-30)NH2] | 4.07
6 | [NMeY][dA]DAI[Phe(F5)]TNSYR[Orn]VL[Abu]QLSAR[Orn]LLQDI[Nle]SR[GABA]-NHMe (also called Peptide 27414) [P-27414 [N-Me-Tyr^1, D-Ala^2, Fpa5^6, Orn^12, Abu^15, Orn^21, Nle^27, Gab^30]hGHRH(1-30)NH-CH3] | 2.79
7 | [Desaminotyrosyl][dA]DAIFT[NMeA]SYR[Orn]VL[Abu]QLSAR[Orn]LLQDI[Nle]D[Agmatine] (SMILES CCCC[C@H](NC(=O)[C@@H](NC(=O)[C@H](CC(=O)O)NC(=O)[C@H](CCC(N)=O)NC(=O)[C@H](CC(C)C)NC(=O)[C@H](CC(C)C)NC(=O)[C@H](CCCN)NC(=O)[C@H](CCCNC(=N)N)NC(=O)[C@H](C)NC(=O)[C@H](CO)NC(=O)[C@H](CC(C)C)NC(=O)[C@H](CCC(N)=O)NC(=O)[C@H](CC)NC(=O)[C@H](CC(C)C)NC(=O)[C@@H](NC(=O)[C@H](CCCN)NC(=O)[C@H](CCCNC(=N)N)NC(=O)[C@H](Cc1ccc(O)cc1)NC(=O)[C@H](CO)NC(=O)[C@H](C)N(C)C(=O)[C@@H](NC(=O)[C@H](Cc1ccccc1)NC(=O)[C@@H](NC(=O)[C@H](C)NC(=O)[C@H](CC(=O)O)NC(=O)[C@@H](C)NC(=O)CCc1ccc(O)cc1)[C@@H](C)CC)[C@@H](C)O)C(C)C)[C@@H](C)CC)C(=O)N[C@@H](CC(=O)O)C(=O)NCCCCNC(=N)N, also called Peptide 20357) [P-20357 [Dat^1, D-Ala^2, N-Me-Ala^8, Orn^12, Abu^15, Orn^21, Nle^27, Asp^28, Agm^29]hGHRH(1-29)NH2] | 5.06
8 | [NMeY][dA]DAIFTNSYR[Orn]VL[Abu]QLSAR[Orn]LLQDI[Nle]DR-NHMe (also called Peptide 27409; MR-409) [P-27409 [N-Me-Tyr^1, D-Ala^2, Orn^12, Abu^15, Orn^21, Nle^27, Asp^28]hGHRH(1-29)NH-CH3] | 4.1
9 | [Desaminotyrosyl][dA]DAIFTNSYR[Orn]VL[Abu]QLSAR[Orn]LLQDI[Nle]DR-NHMe (SMILES CCCC[C@H](NC(=O)[C@@H](NC(=O)[C@H](CC(=O)O)NC(=O)[C@H](CCC(N)=O)NC(=O)[C@H](CC(C)C)NC(=O)[C@H](CC(C)C)NC(=O)[C@H](CCCN)NC(=O)[C@H](CCCNC(=N)N)NC(=O)[C@H](C)NC(=O)[C@H](CO)NC(=O)[C@H](CC(C)C)NC(=O)[C@H](CCC(N)=O)NC(=O)[C@H](CC)NC(=O)[C@H](CC(C)C)NC(=O)[C@@H](NC(=O)[C@H](CCCN)NC(=O)[C@H](CCCNC(=N)N)NC(=O)[C@H](Cc1ccc(O)cc1)NC(=O)[C@H](CO)NC(=O)[C@H](CC(N)=O)NC(=O)[C@@H](NC(=O)[C@H](Cc1ccccc1)NC(=O)[C@@H](NC(=O)[C@H](C)NC(=O)[C@H](CC(=O)O)NC(=O)[C@@H](C)NC(=O)CCc1ccc(O)cc1)[C@@H](C)CC)[C@@H](C)O)C(C)C)[C@@H](C)CC)C(=O)N[C@@H](CC(=O)O)C(=O)N[C@@H](CCCNC(=N)N)C(=O)NC) [P-27400 [Dat^1, D-Ala^2, Orn^12, Abu^15, Orn^21, Nle^27, Asp^28]hGHRH(1-29)NH-CH3] | 1.3
10 | [NMeY][dA]DAIFTTSYR[Orn]VL[Abu]QLSAR[Orn]LLQDI[Nle]DR-NHMe (also called Peptide 27410) [P-27410 [N-Me-Tyr^1, D-Ala^2, Thr^8, Orn^12, Abu^15, Orn^21, Nle^27, Asp^28]hGHRH(1-29)NH-CH3] | 5.24
11 | [NMeY][dA]DAIFTNSYR[Orn]VL[Abu]QLSAR[Orn]LLQDI[Nle]DR-NHEt (also called Peptide 28421) [P-28421 [N-Me-Tyr^1, D-Ala^2, Orn^12, Abu^15, Orn^21, Nle^27, Asp^28]hGHRH(1-29)NH-CH2-CH3] | 2.96
12 | [NMeY][dA]DAI[Phe(F5)]TNSYR[Orn]VL[Abu]QLSAR[Orn]LLQDI[Nle]D[Agmatine] (also called Peptide 20359) [P-20359 [N-Me-Tyr^1, D-Ala^2, Fpa5^6, Orn^12, Abu^15, Orn^21, Nle^27, Asp^28, Agm^29]hGHRH(1-29)NH2] | 1.43
13 | [NMeY][dA]DAIFTNSYR[Orn]VL[Abu]QLSAR[Orn]LLQDI[Nle]D[Agmatine] (also called Peptide 20367) [P-20367 [N-Me-Tyr^1, D-Ala^2, Orn^12, Abu^15, Orn^21, Nle^27, Asp^28, Agm^29]hGHRH(1-29)NH2] | 2.56
14 | [NMeY][dA]DAI[Phe(F5)]TNSYR[Orn]VL[Abu]QLSAR[Orn]LLQDI[Nle]DR-NHMe [P-27404 [N-Me-Tyr^1, D-Ala^2, Fpa5^6, Orn^12, Abu^15, Orn^21, Nle^27, Asp^28]hGHRH(1-29)NH-CH3] | 5
15 | [NMeY][dA]DAIFTQSYR[Orn]VL[Abu]QLSAR[Orn]LLQDI[Nle]DR-NHEt (also called Peptide 28420) [P-28420 [N-Me-Tyr^1, D-Ala^2, Gln^8, Orn^12, Abu^15, Orn^21, Nle^27, Asp^28]hGHRH(1-29)NH-CH2-CH3] | 8.37
